For this data set, the target named is T1, OFA/iLRP extracellular epitope peptide (UniProt P08865).
T1 chain: NQIQAAFREPR
Description: flow cytometry of coated beads; PBS (pH not stated), 200 uL, 30 min, room temperature; 2x10^5 coated beads with 20-40 pmol FAM-ssDNA (cells: 40-60 pmol); washed once or twice with PBS. Particulars: label: FAM (5' in selection primer); single strand, 59 nt. (In general: Flow cytometry measures light scatter and fluorescence of single cells or particles in a stream.)

For 1 molecule, Kd results are on record in article PMC6517398, “Selection of a novel DNA aptamer against OFA/iLRP for targeted delivery of doxorubicin to AML cells”.

B1: AB3 (ssDNA)
DNA: TGCGTGTGTAGTGTGTCTGTTGTTTGTATTGTTGTCTATCCTCTTAGGGATTTGGGCGG
As usually defined, the Kd is the free concentration of one partner at which half of the binding sites on the other are occupied at equilibrium, for simple one-to-one binding. Turning to B1, the Kd was 101 nM.
